Data published in patent US20170044239A1.

Key:
[1] = target: hemagglutinin on BS/07 H1N1 virus (A/Brisbane/59/2007) (Influenza A virus A/Brisbane/59/2007 (H1N1)); test: cell-based or functional assay
[2] = target: BS/07 H1 HA (recombinant ectodomain of hemagglutinin from A/Brisbane/59/2007, H1N1) (Influenza A virus A/Brisbane/59/2007 (H1N1))

Row | Substance | IC50, neutralization of BS/07 H1N1 infection [1] [ng/mL] | normalized binding affinity [2] | normalized neutralizing potency against BS/07 H1N1 [1]
1 | F10 IgG (antibody) | 1850 |  | 
2 | F10 scFv (phage-free soluble, E-tag) |  | 1 | 1
